# Measured values taken from paper PMC11838199.
# Biological target: C12ORF57-FLAG (human) (UniProt Q99622)
# Assay: co-IP
# Sequence of UniProt Q99622 (Q99622 whole entry): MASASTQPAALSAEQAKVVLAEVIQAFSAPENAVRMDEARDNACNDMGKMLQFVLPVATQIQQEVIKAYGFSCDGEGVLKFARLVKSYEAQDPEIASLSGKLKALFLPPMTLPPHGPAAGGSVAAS
substance,measurement,value
CAMK4 lacking the autoinhibitory domain (NAI) (from UniProt Q16566 1-473) (enzyme),"change in CAMK4 co-precipitated with C12ORF57-FLAG, against wild type CAMK4",-65.8%
CAMK4 lacking the calmodulin binding domain (NCB) (from UniProt Q16566 1-473) (enzyme),"change in CAMK4 co-precipitated with C12ORF57-FLAG, against wild type CAMK4",-6.13%
